This series relates to Escherichia coli TOP10. Briefly: shrunken log2 fold change of peptide-encoding DNA abundance (4.5 h post-induction vs induction); higher = less antimicrobial activity (less host growth inhibition). Particulars: time post-induction: 4.5 h; library: site-saturation at positions 5, 18, 19, 20.
With RRIRNRPPRLPRPRPRPTCTPRP, the “shrunken log2 fold change” value was -0.0629.

On to RRIRIRPPRLPRPRPRPMLPPRP, for which the “shrunken log2 fold change” value is -0.0228.

With RRIRYRPPRLPRPRPRPSYCPRP, the “shrunken log2 fold change” value is -0.407.

In the case of RRIRNRPPRLPRPRPRPMMDPRP, the “shrunken log2 fold change” value was -0.425.

RRIRTRPPRLPRPRPRPDCWPRP: the “shrunken log2 fold change” value turned out to be 0.0105.

With RRIRWRPPRLPRPRPRPIREPRP, the “shrunken log2 fold change” value was 0.411.

Turning to RRIRARPPRLPRPRPRPSENPRP, the “shrunken log2 fold change” value was determined as 0.182.

Take RRIRRRPPRLPRPRPRPIFTPRP: the “shrunken log2 fold change” value came to 0.2.

As to RRIRWRPPRLPRPRPRPSSAPRP, the “shrunken log2 fold change” value amounted to 0.443.

For the sequence RRIRYRPPRLPRPRPRPLYIPRP, the “shrunken log2 fold change” value was -0.999.

For the sequence RRIRQRPPRLPRPRPRPELMPRP, the “shrunken log2 fold change” value is -0.0508.

For RRIRHRPPRLPRPRPRPCIHPRP, the “shrunken log2 fold change” value is -0.345.

With RRIRFRPPRLPRPRPRPYFFPRP, the “shrunken log2 fold change” value was -0.544.

For RRIRLRPPRLPRPRPRPVRMPRP, the “shrunken log2 fold change” value stood at 0.494.

Regarding RRIRGRPPRLPRPRPRPIIYPRP, the “shrunken log2 fold change” value is 0.0582.

As for RRIRQRPPRLPRPRPRPFARPRP, the “shrunken log2 fold change” value was -0.0149.

On to RRIRWRPPRLPRPRPRPDYIPRP, for which the “shrunken log2 fold change” value is -0.00749.

Take RRIRFRPPRLPRPRPRPHIDPRP: the “shrunken log2 fold change” value was -0.335.

Take RRIRCRPPRLPRPRPRPHRKPRP: the “shrunken log2 fold change” value was -0.0176.

In the case of RRIRFRPPRLPRPRPRPKHFPRP, the “shrunken log2 fold change” value is -0.0499.

Turning to RRIRHRPPRLPRPRPRPVQVPRP, the “shrunken log2 fold change” value is -0.162.

With RRIRERPPRLPRPRPRPFNIPRP, the “shrunken log2 fold change” value is -0.0814.

Consider RRIRIRPPRLPRPRPRPPEVPRP, for which the “shrunken log2 fold change” value is -0.173.

As to RRIRFRPPRLPRPRPRPCKNPRP, the “shrunken log2 fold change” value turned out to be 0.0492.

For RRIRARPPRLPRPRPRPIPIPRP, the “shrunken log2 fold change” value was determined as 0.354.

With RRIRIRPPRLPRPRPRPYTYPRP, the “shrunken log2 fold change” value is -0.705.

Turning to RRIRTRPPRLPRPRPRPTKNPRP, the “shrunken log2 fold change” value is -0.083.

As to RRIRCRPPRLPRPRPRPYADPRP, the “shrunken log2 fold change” value was -0.037.

For RRIRGRPPRLPRPRPRPIKMPRP, the “shrunken log2 fold change” value came out at 0.441.

In the case of RRIRVRPPRLPRPRPRPNMPPRP, the “shrunken log2 fold change” value is -0.0801.

As to RRIRQRPPRLPRPRPRPDRAPRP, the “shrunken log2 fold change” value came to 0.12.

With RRIRSRPPRLPRPRPRPFRIPRP, the “shrunken log2 fold change” value amounted to 0.0361.

In the case of RRIRMRPPRLPRPRPRPHADPRP, the “shrunken log2 fold change” value stood at 2.

Turning to RRIRERPPRLPRPRPRPWCHPRP, the “shrunken log2 fold change” value is -0.229.

As for RRIRVRPPRLPRPRPRPKIHPRP, the “shrunken log2 fold change” value was -0.205.

For the sequence RRIRSRPPRLPRPRPRPVPPPRP, the “shrunken log2 fold change” value stood at 0.329.

For the sequence RRIRSRPPRLPRPRPRPIPNPRP, the “shrunken log2 fold change” value was -0.432.

For RRIRMRPPRLPRPRPRPFVVPRP, the “shrunken log2 fold change” value is -0.254.

As to RRIRLRPPRLPRPRPRPSPEPRP, the “shrunken log2 fold change” value amounted to 0.00229.

In the case of RRIRFRPPRLPRPRPRPYNTPRP, the “shrunken log2 fold change” value was -1.1.

On to RRIRHRPPRLPRPRPRPVFMPRP, for which the “shrunken log2 fold change” value was -0.311.

For the sequence RRIRPRPPRLPRPRPRPMGEPRP, the “shrunken log2 fold change” value was -0.231.

With RRIRVRPPRLPRPRPRPNPFPRP, the “shrunken log2 fold change” value is -0.104.

RRIRNRPPRLPRPRPRPPKGPRP: the “shrunken log2 fold change” value came out at 0.112.

As for RRIRCRPPRLPRPRPRPSFYPRP, the “shrunken log2 fold change” value is -0.793.

Consider RRIRTRPPRLPRPRPRPNDMPRP, for which the “shrunken log2 fold change” value was -0.209.

With RRIRIRPPRLPRPRPRPGTIPRP, the “shrunken log2 fold change” value is -0.438.

Regarding RRIRIRPPRLPRPRPRPHTCPRP, the “shrunken log2 fold change” value was -0.0906.

Consider RRIRNRPPRLPRPRPRPLATPRP, for which the “shrunken log2 fold change” value came out at 0.292.

In the case of RRIRNRPPRLPRPRPRPRDKPRP, the “shrunken log2 fold change” value is -0.332.

As for RRIRARPPRLPRPRPRPMITPRP, the “shrunken log2 fold change” value is 0.312.

For RRIRERPPRLPRPRPRPRNGPRP, the “shrunken log2 fold change” value is 0.0197.

For RRIRFRPPRLPRPRPRPFFVPRP, the “shrunken log2 fold change” value is -0.161.

As to RRIRSRPPRLPRPRPRPQRHPRP, the “shrunken log2 fold change” value was determined as 0.141.

Take RRIRERPPRLPRPRPRPNRFPRP: the “shrunken log2 fold change” value was 0.0105.

For the sequence RRIRPRPPRLPRPRPRPMTLPRP, the “shrunken log2 fold change” value is -0.189.

Turning to RRIRRRPPRLPRPRPRPYMAPRP, the “shrunken log2 fold change” value is -0.69.

Regarding RRIRKRPPRLPRPRPRPDGNPRP, the “shrunken log2 fold change” value was determined as 0.00833.

With RRIRERPPRLPRPRPRPPRRPRP, the “shrunken log2 fold change” value was found to be 0.408.

Turning to RRIRARPPRLPRPRPRPFGYPRP, the “shrunken log2 fold change” value came to 0.167.

Turning to RRIRIRPPRLPRPRPRPWFLPRP, the “shrunken log2 fold change” value was -0.802.

On to RRIRARPPRLPRPRPRPYCKPRP, for which the “shrunken log2 fold change” value was -0.376.

For RRIRIRPPRLPRPRPRPWHTPRP, the “shrunken log2 fold change” value was -0.113.

Turning to RRIRERPPRLPRPRPRPWCIPRP, the “shrunken log2 fold change” value is -1.84.

Turning to RRIRYRPPRLPRPRPRPHACPRP, the “shrunken log2 fold change” value turned out to be 0.0039.

As for RRIRKRPPRLPRPRPRPRIMPRP, the “shrunken log2 fold change” value is 0.0472.

With RRIRTRPPRLPRPRPRPTQNPRP, the “shrunken log2 fold change” value came out at 0.385.

In the case of RRIRARPPRLPRPRPRPMQQPRP, the “shrunken log2 fold change” value was 0.281.

Take RRIRSRPPRLPRPRPRPCCQPRP: the “shrunken log2 fold change” value amounted to 0.0545.

For RRIRQRPPRLPRPRPRPGFTPRP, the “shrunken log2 fold change” value is -0.11.

Take RRIRLRPPRLPRPRPRPFDTPRP: the “shrunken log2 fold change” value is -0.167.

Take RRIRGRPPRLPRPRPRPSKNPRP: the “shrunken log2 fold change” value is 0.619.

Regarding RRIRRRPPRLPRPRPRPGYRPRP, the “shrunken log2 fold change” value is -0.119.

On to RRIRMRPPRLPRPRPRPNSMPRP, for which the “shrunken log2 fold change” value is -0.22.

For the sequence RRIRIRPPRLPRPRPRPRWGPRP, the “shrunken log2 fold change” value turned out to be 0.181.

For RRIRLRPPRLPRPRPRPKACPRP, the “shrunken log2 fold change” value is 0.16.

Turning to RRIRCRPPRLPRPRPRPIWNPRP, the “shrunken log2 fold change” value was -0.343.

In the case of RRIRCRPPRLPRPRPRPVSKPRP, the “shrunken log2 fold change” value is -0.109.

With RRIRFRPPRLPRPRPRPQNFPRP, the “shrunken log2 fold change” value is 0.0645.

With RRIRNRPPRLPRPRPRPWHVPRP, the “shrunken log2 fold change” value stood at 0.0188.

Regarding RRIRERPPRLPRPRPRPIGWPRP, the “shrunken log2 fold change” value is 0.0874.

With RRIRCRPPRLPRPRPRPVFRPRP, the “shrunken log2 fold change” value was -0.128.

Take RRIRGRPPRLPRPRPRPFDPPRP: the “shrunken log2 fold change” value stood at 0.14.

For the sequence RRIRPRPPRLPRPRPRPIANPRP, the “shrunken log2 fold change” value is -0.12.

As for RRIRVRPPRLPRPRPRPMHCPRP, the “shrunken log2 fold change” value was -0.00923.

As to RRIRDRPPRLPRPRPRPDYSPRP, the “shrunken log2 fold change” value was 0.0125.

As to RRIRARPPRLPRPRPRPPQTPRP, the “shrunken log2 fold change” value worked out at 0.9.

On to RRIRCRPPRLPRPRPRPTCLPRP, for which the “shrunken log2 fold change” value is 0.00222.

RRIRMRPPRLPRPRPRPPIFPRP: the “shrunken log2 fold change” value was 0.00125.

For RRIRLRPPRLPRPRPRPPGYPRP, the “shrunken log2 fold change” value was -0.119.

RRIRGRPPRLPRPRPRPTTMPRP: the “shrunken log2 fold change” value worked out at 0.451.

(Values after the supplement of paper PMC9112550, “Optimization of the antimicrobial peptide Bac7 by deep mutational scanning” (BMC Biology, 2022).)
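Note: peptides expressed intracellularly from a pBAD plasmid library in pooled LB shake-flask culture, induced with 0.3% L-arabinose, DNA abundance read by NGS, three biological replicates, DESeq2 with apeglm shrinkage.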
